Experimental data as given in IntAct's records for PubMed 11412997.

Target: par6_caeel par-6 (UniProt Q9NAN2)
Sequence (Q9NAN2 whole entry): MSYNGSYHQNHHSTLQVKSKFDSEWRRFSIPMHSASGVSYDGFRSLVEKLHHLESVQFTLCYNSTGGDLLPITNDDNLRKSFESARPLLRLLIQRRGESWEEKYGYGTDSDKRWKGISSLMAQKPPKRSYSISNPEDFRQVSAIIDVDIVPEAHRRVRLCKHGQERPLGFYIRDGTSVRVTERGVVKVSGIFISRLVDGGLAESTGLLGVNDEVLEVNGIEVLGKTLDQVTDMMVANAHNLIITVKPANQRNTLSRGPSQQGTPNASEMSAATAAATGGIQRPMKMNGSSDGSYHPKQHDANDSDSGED

Sequence of Cell division control protein 42 homolog (Caenorhabditis elegans), Q05062 T17N (Q05062 whole entry T17N): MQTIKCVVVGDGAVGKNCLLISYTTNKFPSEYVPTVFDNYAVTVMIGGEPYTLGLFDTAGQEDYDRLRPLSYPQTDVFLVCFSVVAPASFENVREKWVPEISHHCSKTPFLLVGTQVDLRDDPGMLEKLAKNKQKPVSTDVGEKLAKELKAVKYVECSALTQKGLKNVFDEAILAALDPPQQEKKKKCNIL

effect of a mutation on the interaction: disrupting interaction
Substance: Cell division control protein 42 homolog (Caenorhabditis elegans), Q05062 T17N
